Measurements: paper PMC9482650, “Quantitative fragmentomics allow affinity mapping of interactomes” (Nature Communications, 2022)

How the values were obtained:
Experiment in all cases: PDZ-AP-MS, biotinylated MBP-PDZ baits
Type in all cases: binding, human
[1] = system: Jurkat cell extract preys; conditions: for Difference log2: enrichment of prey
Procedure: (§1) For PDZ-AP-MS experiments, PDZ domains were cloned as His6-AviTag-MBP-PDZ constructs. For co-expression with BirA, E. coli BL21(DE3) cells were co-transformed with His6-AviTag-MBP, or His6-AviTag-MBP-PDZ-coding and PET21a-BirA (Addgene #20857) plasmids. Simultaneously to IPTG induction, 50 µM biotin was added to the media. After cell harvesting, the lysis buffer was also supplemented with 50 µM biotin. Otherwise, expression and double affinity purification was identical as previously described in details.
(§2) For PBM-AP-MS experiments, 30 μl streptavidin resin was mixed with biotin or peptide at 50–60 μM concentration in 6–6.5 resin volume for 60 min to achieve resin saturation. For PDZ-AP-MS experiments, 30 μl streptavidin resin was mixed with biotinylated MBP or MBP-PDZ at 40-50 μM concentration in >1000× resin volume for 60 min to achieve resin saturation. After saturation, resins were washed a single time (ten resin volume, holdup buffer), and were depleted with biotin (1 mM biotin, 5–10 resin volume, 10 min). Finally, resins were washed two times. 0.5 ml 2 mg/ml cell lysate was added to the dry resin (1 mg total input) and were incubated at 4 °C for 2 h. Then, the beads were washed three times with 10 resin volume buffer containing: 50 mM TRIS pH 8.5, 150 mM NaCl, 1% TritonX-100, 10× complete EDTA-free protease inhibitor cocktail, 2 mM EDTA, 1 mM TCEP. Then, the beads were washed two times with ten resin volume buffer containing: 50 mM TRIS pH 8.5, 150 mM NaCl, 1 mM TCEP. Finally, captured protein was eluted from the resin in two steps and the eluted fractions were pooled. For each elution the beads were incubated for 30 min with three resin volume buffer containing: 20 mM TRIS pH8.5, 100 mM NaCl, 500 μM TCEP, 8 M Urea. Between each step, the beads were separated by mild centrifugation and the supernatant was removed by gentle pipetting.
(§3) The samples were precipitated with TCA 20% overnight at 4 °C and centrifuged at 14,000 rpm for 10 min at 4 °C. The protein pellets were washed twice with 1 mL cold acetone and air dried. The protein extracts were solubilized in urea 8 M, reduced with 5 mM TCEP for 30 min, and alkylated with 10 mM iodoacetamide for 30 min in the dark. Double digestion was performed at 37 °C with 500 ng endoproteinase Lys-C for 4 h, followed by fourfold dilution and an overnight digestion with 500 ng trypsin. Peptide mixtures were then desalted on C18 spin-column and dried on Speed-Vacuum.
(§4) Samples were analyzed using an Ultimate 3000 nano-RSLC (Thermo Scientific, San Jose California) coupled in line with a LTQ-Orbitrap ELITE mass spectrometer via a nano-electrospray ionization source (Thermo Scientific, San Jose California). Peptide mixtures were injected in 0.1% TFA on a C18 Acclaim PepMap100 trap-column (75 µm ID × 2 cm, 3 µm, 100 Å, Thermo Fisher Scientific) for 3 min at 5 µL/min with 2% ACN, 0.1% FA in H2O and then separated on a C18 Accucore nano-column (75 µm ID × 50 cm, 2.6 µm, 150 Å, Thermo Fisher Scientific) at 220 nl/min and 38 °C with a 90 min linear gradient from 5% to 30% buffer B (A: 0.1% FA in H2O/B: 99% ACN, 0.1% FA in H2O), regeneration at 5% B. The mass spectrometer was operated in positive ionization mode, in data-dependent mode with survey scans from m/z 350–1500 acquired in the Orbitrap at a resolution of 120,000 at m/z 400. The 20 most intense peaks from survey scans were selected for further fragmentation in the Linear Ion Trap with an isolation window of 2.0 Da and were fragmented by CID with normalized collision energy of 35%. (TOP20CID method) Unassigned and single charged states were excluded from fragmentation. The Ion Target Value for the survey scans (in the Orbitrap) and the MS2 mode (in the Linear Ion Trap) were set to 1E6 and 5E3 respectively and the maximum injection time was set to 100 ms for both scan modes. Dynamic exclusion was set to 20 s after one repeat count with mass width at ±10 ppm. […]

[2] = system: HeLa cell extract preys; conditions: for Ratio: fold enrichment of prey; for Difference: log2 enrichment of prey
Procedure: as §1, §2, §3, §4

[3] = system: HaCat cell extract preys; conditions: for Difference log2: bait TX1BP3 PDZ vs MBP, enrichment of prey; for Ratio TX1BP3/MBP: bait TX1BP3 PDZ, fold change of prey
Procedure: as §1, §2, §3, §4

[4] = PDZ-AP-MS fold change of the PBM-protein prey, bait MBP-PDZ DLG1_1
[5] = PDZ-AP-MS fold change of the PBM-protein prey, bait MBP-PDZ DLG1_2
[6] = PDZ-AP-MS fold change of the PBM-protein prey, bait MBP-PDZ SCRIB_1
[7] = PDZ-AP-MS fold change of the PBM-protein prey, bait MBP-PDZ SCRIB_2
[8] = PDZ-AP-MS fold change of the PBM-protein prey, bait MBP-PDZ SNX27
[9] = PDZ-AP-MS fold change of the PBM-protein prey, bait MBP-PDZ TX1BP3

B1: TAX1BP3 (protein, UniProt O14907 2-124, looked up)
Tax1-binding protein 3: SYIPGQPVTAVVQRVEIHKLRQGENLILGFSIGGGIDQDPSQNPFSEDKTDKGIYVTRVSEGGPAEIAGLQIGDKIMQVNGWDMTMVTHDQARKRLTKRSEEVVRLLVTRQSLQKAVQQSMLS
Question: With B1 as the molecule, how does the “Difference log2” value ([1]; bait DLG1_1 PDZ vs MBP) read?
Answer: 4.078

Question: And the “Ratio DLG1_1 / MBP” value ([1]; bait DLG1_1 PDZ, fold change of prey)?
Answer: 16.8941

Question: And the “Difference log2” value ([1]; bait TX1BP3 PDZ vs MBP)?
Answer: 12.2171

Question: What about the “Ratio TX1BP3/MBP” value ([1]; bait TX1BP3 PDZ, fold change of prey) of the same molecule?
Answer: 4761.06

Question: What about the Ratio ([2]; bait TX1BP3 PDZ vs MBP control) of the same molecule?
Answer: 86.5427

Question: What about the Difference ([2]; bait TX1BP3 PDZ vs MBP control) of the same molecule?
Answer: 6.435

Question: What about the “Difference log2” value [3] of the same molecule?
Answer: 10.0746

Question: What about the “Ratio TX1BP3/MBP” value [3] of the same molecule?
Answer: 1078.31

B2: TX1BP3 (protein, UniProt O14907 2-124, looked up)
Tax1-binding protein 3: SYIPGQPVTAVVQRVEIHKLRQGENLILGFSIGGGIDQDPSQNPFSEDKTDKGIYVTRVSEGGPAEIAGLQIGDKIMQVNGWDMTMVTHDQARKRLTKRSEEVVRLLVTRQSLQKAVQQSMLS
Question: Which “Difference log2” value [3] does the source give for B2 here?
Answer: 9.132

Question: What about the “Ratio TX1BP3/MBP” value [3] of the same molecule?
Answer: 561.056

B3: CAPRIN1 (protein, UniProt Q14444 2-709, looked up)
Caprin-1: PSATSHSGSGSKSSGPPPPSGSSGSEAAAGAGAAAPASQHPATGTGAVQTEAMKQILGVIDKKLRNLEKKKGKLDDYQERMNKGERLNQDQLDAVSKYQEVTNNLEFAKELQRSFMALSQDIQKTIKKTARREQLMREEAEQKRLKTVLELQYVLDKLGDDEVRTDLKQGLNGVPILSEEELSLLDEFYKLVDPERDMSLRLNEQYEHASIHLWDLLEGKEKPVCGTTYKVLKEIVERVFQSNYFDSTHNHQNGLCEEEEAASAPAVEDQVPEAEPEPAEEYTEQSEVESTEYVNRQFMAETQFTSGEKEQVDEWTVETVEVVNSLQQQPQAASPSVPEPHSLTPVAQADPLVRRQRVQDLMAQMQGPYNFIQDSMLDFENQTLDPAIVSAQPMNPTQNMDMPQLVCPPVHSESRLAQPNQVPVQPEATQVPLVSSTSEGYTASQPLYQPSHATEQRPQKEPIDQIQATISLNTDQTTASSSLPAASQPQVFQAGTSKPLHSSGINVNAAPFQSMQTVFNMNAPVPPVNEPETLKQQNQYQASYNQSFSSQPHQVEQTELQQEQLQTVVGTYHGSPDQSHQVTGNHQQPPQQNTGFPRSNQPYYNSRGVSRGGSRGARGLMNGYRGPANGFRGGYDGYRPSFSNTPNSGYTQSQFSAPRDYSGYQRDGYQQNFKRGSGQSGPRGAPRGRGGPPRPNRGMPQMNTQQVN
Question: How did the Ratio ([2]; bait DLG1_1 PDZ vs MBP control) turn out when B3 was run?
Answer: 30.4665

Question: And the Difference ([2]; bait DLG1_1 PDZ vs MBP control)?
Answer: 4.929

B4: ALDH9A1 (protein, UniProt P49189 1-494, looked up)
4-trimethylaminobutyraldehyde …: MSTGTFVVSQPLNYRGGARVEPADASGTEKAFEPATGRVIATFTCSGEKEVNLAVQNAKAAFKIWSQKSGMERCRILLEAARIIREREDEIATMECINNGKSIFEARLDIDISWQCLEYYAGLAASMAGEHIQLPGGSFGYTRREPLGVCVGIGAWNYPFQIASWKSAPALACGNAMVFKPSPFTPVSALLLAEIYSEAGVPPGLFNVVQGGAATGQFLCQHPDVAKVSFTGSVPTGMKIMEMSAKGIKPVTLELGGKSPLIIFSDCDMNNAVKGALMANFLTQGQVCCNGTRVFVQKEILDKFTEEVVKQTQRIKIGDPLLEDTRMGPLINRPHLERVLGFVKVAKEQGAKVLCGGDIYVPEDPKLKDGYYMRPCVLTNCRDDMTCVKEEIFGPVMSILSFDTEAEVLERANDTTFGLAAGVFTRDIQRAHRVVAELQAGTCFINNYNVSPVELPFGGYKKSGFGRENGRVTIEYYSQLKTVCVEMGDVESAF
Question: How did the “Fold changes, Jurkat, DLG1_1” value [1, 4] turn out when B4 was run?
Answer: 0.4996

Question: And the “Fold changes, Jurkat, DLG1_2” value [1, 5]?
Answer: 10.9748

Question: And the “Fold changes, Jurkat, SCRIB_1” value [1, 6]?
Answer: 0.5795

Question: And the “Fold changes, Jurkat, SCRIB_2” value [1, 7]?
Answer: 0.6928

Question: What about the “Fold changes, Jurkat, SNX27” value [1, 8] of the same molecule?
Answer: 23.7963

Question: And the “Fold changes, Jurkat, TX1BP3” value [1, 9]?
Answer: 0.5031

Question: And the “Fold changes, HeLa, DLG1_1” value [2, 4]?
Answer: 0.965

Question: What about the “Fold changes, HeLa, DLG1_2” value [2, 5] of the same molecule?
Answer: 0.6499

Question: What about the “Fold changes, HeLa, SCRIB_1” value [2, 6] of the same molecule?
Answer: 1.5654

Question: What about the “Fold changes, HeLa, SCRIB_2” value [2, 7] of the same molecule?
Answer: 0.9621

Question: And the “Fold changes, HeLa, SNX27” value [2, 8]?
Answer: 23.2299

Question: And the “Fold changes, HeLa, TX1BP3” value [2, 9]?
Answer: 0.8902

Question: What about the “Fold changes, HaCat, DLG1_1” value [3, 4] of the same molecule?
Answer: 0.7692

Question: What about the “Fold changes, HaCat, DLG1_2” value [3, 5] of the same molecule?
Answer: 1.032

Question: What about the “Fold changes, HaCat, SCRIB_1” value [3, 6] of the same molecule?
Answer: 3.899

Question: And the “Fold changes, HaCat, SCRIB_2” value [3, 7]?
Answer: 0.6746

Question: And the “Fold changes, HaCat, SNX27” value [3, 8]?
Answer: 57.4815

Question: What about the “Fold changes, HaCat, TX1BP3” value [3, 9] of the same molecule?
Answer: 0.8437
